The text below walks through data of article PMC11661604 (2024).

Like-named read-outs stand apart in the source and are kept apart here.

Experiment [1] has as its target T1, native Semliki Forest virus (SFV) virion (Semliki Forest virus). Description: SPR. (In general: In SPR one partner is held on a chip, and binding of the other changes the refractive index at the surface.)
In experiment [2] the target is T1, native Semliki Forest virus (SFV) virion. Description: SPR. This is another data set of the same source.

B1: LA1-3-Fc (Fc fusion)
chain: not shown
In the case of B1, the Kd (usually the free concentration of one partner at which half of the binding sites on the other are occupied at equilibrium, for simple one-to-one binding) in experiment [1] is 523 nM. Take MRTCRIHEISCGAHSTQCIPVSWRCDGENDCDSGEDEENCGNI (Fc fusion) [LA3-Fc]: the Kd turned out to be 1020 nM in experiment [1] and 1170 nM in experiment [2].

MRTCAIHEISCGAHSTQCIPVSWRCDGENDCDSGEDEENCGNI (Fc fusion) [LA3-Fc R114A] yielded a Kd in experiment [2] of 1580 nM.

In turn, MRTCRIHEISCGAHSTACIPVSWRCDGENDCDSGEDEENCGNI (Fc fusion) [LA3-Fc Q126A] returned a Kd in experiment [2] of 11700 nM.
